Variants at the floor of the assay were thinned out.
B1: TPR 5TU (parent)
chain: GGAUCUUCUCGAUCUAACAAAAAAGACAAAUCUGCCACAAAGCUUGAGAGCAUCUUCGGAUGCAGAGGCGGCAGCCUUCGGUGGCGCGAUAGCGCCAACGUUCUCAACUAUGACACGCAAAACGCGUGCUCCGUUGAAUGGAGUUUAUCAUG

Variants of: B1
Experiment: polymerase ribozyme fitness, log enrichment relative to wild type (log ratio); higher = more active; in vitro selection for triplet polymerase activity
Outline: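 Each subunit of a heterodimeric triplet polymerase ribozyme was represented by a PCR-built, transcribed mutant library that underwent triplicate single-round in vitro selection with frozen incubation at −7 °C. Extended constructs were recovered by gel excision, streptavidin-bead capture and RT-PCR, and Illumina sequencing of input and output libraries kept genotypes with ≥10 input reads and ≥1 read per output. Fitness is the logarithm of genotype enrichment relative to wild-type enrichment, from inverse-variance-weighted replicate averages, with a logarithm base of 2.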

Variant | polymerase ribozyme fitness (log ratio)
GGAUCUUCUCGAUCUAACAAAGCAGACAAAUCUGCCACAAAGCUUGAGAGCAUCUUCGGAUGCAGAGGCGGCAGCCUUCGGUAGCGCGAUAGCGCCAACGUUCUCAACUAUGACACGCAAAACGCGUGCUCCGUUGAAUGGAGUUUAUCAUG [A22G A23C G83A] | ≤ -4.2
GGAUCUUCUCGAUCUAACAAAGAAGACAAAUCUGCCACAAAGCUUGAGAGCAUCUUCGGAUGCAGAGGCGGCAGCCUUCAGUGGCACGAUAGAGCCAACGUUCUCAACUAUGACACGCAAAACGCGUGCUCCGUUGAAUGGAGUUUAUCAUG [A22G G80A G86A C93A] | -4.2
GGAUCUUCUCGAUCUAACAAAGAAGACAAUUCUGCCACAAAGCUUGAGAGCAUCUUCGGAUGCACAGGCGGCAGCCUUCGGUGGCGCGAUAGCGCCAACGUUCUCAACUAUGACACGCAAAACGCGUGCUCCGUUAAAUGGAGUUUAUCAUG [A22G A30U G65C G136A] | ≤ -4.2
GGAUCUUCUCGAUCUAACAAAGAAGACAAAUCUGCCACAAAGCUUGAGAGCAUCUUCGGAUGCAGAGGCGGCAGCCUUCGGUGUCGCGAUAGCGCCAACGUUCUCAACUAUGACACGCAAAACGCGUGCUCCGUUGAAUGGAGUUUAUCAUG [A22G G84U] | -2.74
GGAUCUUCUCGAUCUAACAAAGAAGACAAAUCUGCCACAAAGCUUGAGAGCAUUUUCGGAUGCAGAGGCGGCAGCCUUCGGUGGUGCGAUAGCGCCAACGUUUUCAACUAUGACACGCAAAACGCGUGCUCUGUUGAAUGGAGUUUCUCAUG [A22G C54U C85U C103U C132U A147C] | -3.75
GGAUCUUCUCGAUCUAACAAAGAAGACAAAUCUGCCACAGACCUUGAGAGCAUCUUCGGAUGCAGAGGCGGCAGCCUUAGGUGGCGCGAUAGCCCCAACGUUCUCAACUAUGACACGCAAAACGCGUGCUCCGUUGAAUGGAGUUUAUCAUG [A22G A40G G42C C79A G94C] | ≤ -4.2
GGAUCUUCUCGAUCUAACAAACAAGACAAAUCUGCCACAAAGCUUGAGAGCAUCUUCGGAUGCAGAGGCGGCAGCCUUCGGUGUCGCGAUUGCGCCAACGUUCUCACCUAUGACACGCAAAACGCGUGCUCCGUUCAAUGGAGUUUAUCAUG [A22C G84U A91U A107C G136C] | ≤ -4.2
GGAUCUUCUCGAUCUAACAAAGAAGACAAAUGGGCCACAAAGCUUGAGAGCAUCUUCGGAUGCAGAGGCGGCAGCCUUCGGUGGCGCGAUAGCACCAACGUUCUCAACUCUGACAGGCAAAACGCGUGCUCCGUUGAAUGGAGUUUAUCAUG [A22G C32G U33G G94A A110C C116G] | -4.15
GGAUCUUCUCGAUCUAACAAAGAAGACAAAUCUCCCACAAAGCUUGAGAGCAUCUUCGGAUGCAGAGGCGGCAGCCUUCGGUGGCGCGAUAGCGUCAACGUUCUCAACUAUGACACGCAAAACGCGUGCUCCGUUGAGUGGAGUUUAUCAUG [A22G G34C C95U A138G] | ≤ -4.2
GGAUCUUCUCGAUCUAACAAAGAAGACAAAUCUGCCACAAAGCUUGAGAGCAUCUUCGCAUCUAGAGGCGGCAGCCUUCGGUGGCGGGUUAGCGCCAACGUUCUCAACUAUGACACGCACAACGCGUGCUCCGUUGAAUGGACUUUAUCAUG [A22G G59C G62C C63U C87G A89U A120C G143C] | -3.94
GGAUCUUCUCGAUCUAACAAAGAAGACAAAUCUGCCACAAAGCUUGAGAGCAUCUUCGGAUGCAGAGGCGGCAGCCUUCGGUGGCGCGAUAGCGCCAACGUUCUCAACUAUGACACGCAAAACGCGUGCUCCGUUGAAUGGAGUUUAUCAUG [A22G] | 0.56
GGAUCUUCUCGAUCUAACAAAGAAGACAAAUCUGCCACAAAGCUUGAGAGCAUCUUCGGAUGCAGAGGCGGCAGCCUUCGGUGGCGCGAUAGCGCCAACGUUCUCAACUAUGACACGCAAAAAGCGUGCUCCGUUGAAUGGAGUUUUUCAUG [A22G C123A A147U] | 1.6
GGAUCUUCUCGAUCUAACAAAGAAGACAAAUCUGCCACAAAGCUUGAGAGCAUCUUCGCAUGCAGAGGCGGCAGGCUUCGGUGGCGCGAUAGCGCCAACGUUCUCAAGUAUGACACGCAAAACGCGUGCUCCGUUGAGUGGAGUUUAUCAUG [A22G G59C C75G C108G A138G] | ≤ -4.2
GGAUCUUCUCGAUCUAACAAAGAAGACAAAUCUGCCACAAAGCUUGAGAGCAUCUUCGGAUGCAGAGGCGGCUGCCUUCGGUGGCGUGAUAGCGCCAACGUUCUCAACUAUGACACGCAAAACGCGUGCUCCGUUGAAUGGAGUUUAUCAUG [A22G A73U C87U] | -3.05
GGAUCUUCUCGAUCUAACAAAGAAGACAAAUCUGCCCCAAAGCUUGAGACCAUCUUCGGAUGCGCAGGCGGCAGCCUUCGGUGGCGCAAUAGCGCCAACGUUCUCAACUGUGACACGCAAAACGCGUGCUCCGUUGAAUGGAGUUUAUCAUG [A22G A37C G50C A64G G65C G88A A110G] | ≤ -4.2
GGAUCUUCUCGAUCUAACAAAGAAGACAAAUCUGCCACAAGGCUUGAGAGAAUCUUCGGAUGCAGAGGCGGCAGCAUUCGGUGGCGCGAUAGCUCCUACGUUCUCAACUAUGACACGCAAAACGCGUGCUCCGUUGAAUGAAGUUUAUCAUG [A22G A41G C51A C76A G94U A97U G141A] | ≤ -4.2
GGAUCUUCUCGAUCUAACAAAGAAGACAAAUCUGCCACAAAGCUUGAGAGCAUCUUCGGAUGCAGAGGCGGCAGCCUUCGGUGGCGCGAUAGCGUCAACGUUCUCAACUAUGACACGCGAAACGCGUGCUCCGUUGAAUGGAGUUUAUCAUG [A22G C95U A119G] | 0.832
GGAUCUUCUCGAUCUAACAAAGAAGACAAAUCUGCCACAAAGCUUGAGAGCAUCUUCGGAUGCAGAGGCGGCAGCCUUCGGUGGCGUGAUAGCGCCAACGUUCUCAACUAUGACACGCAAAACGCGUGCUCCGUUGAAUGGAGUUUAUCAUG [A22G C87U] | -0.258
GGAUCUUCUCGAUCUAACAAAGAAGACAAAUCUGACACAAAGCUUGAGAGCAUCUUCGGAUGCAGAGGCGGCAGCCUUCGGUGGCGCGAUAGCGCCAACGUUCUCACCUAUGACACGCAAAACGCGUGCUCCGUUGAAUGGAGUUUAUCAUG [A22G C35A A107C] | ≤ -4.2

Variant | polymerase ribozyme fitness (log ratio)
GGAUCUUCUCGAUCUAACAAAGAAGACAAAUCUGCCACAAAGCUUGAGAGCAUCUUCGGAUGCAGAGGCGGCAGCCUUCGGUGGAGCGAUAGCGCCAACGUUCUCAACUAUGACACGCAAAACGCGUGCUCCGUUGAAUGGACUUUAUCAUG [A22G C85A G143C] | -2.92
GGAUCUUCUCGAUCUAACAAAGAAGACAAAUCUGCCACAAAGCUUGAGAGCAUCUUCGGAUGCAGAGGCGGCAGCCUUCGGUGGAGCGAUAGCGCCAACGUUCUCAACUAUGACACGCAAAACGCGUGCUCCGUUGAAUGGAGUUUAUCAUG [A22G C85A] | -1.12
GGAUCUUCUCGAUCUAACAAAGAAGACAAAUUUGCCACAAAGCUUGAGAGCAUCUUCGGAUGCAGAGGCGGCAGCCUUCGGUGGCGCGAUAGCGCCAACGUUGUCAACUAUGACACGCAAAACGCGUGCUCCGUUGAAUGGAGUUUGUCAUA [A22G C32U C103G A147G G152A] | ≤ -4.2
GGAUCUUCUCGAUCUAACAAAGAAGACAAAUCUGCCACAAAGCUUGAGAGCAUCUUCGGAUGCAGAGGCGGCAGCCUUCGGUGGUGCGAUAGCGCCAACGUUCUCAACUAUGAAACGCAAAACGCGUGCUCCGUUGAAGGGAGUUUAUCAUG [A22G C85U C114A U139G] | -3.14
GGAUCUUCUCGAUCUAACAAAGAAGACAAAUCUGCCACAAAGCUUGAGAGCAUCUUCGGAUGCAGAGGCGGCAGCCUUCGGUGGCUCGAUAGCGCCAACGUUCUCAACUAUGACACGCAAAACGCGUGCUCCGUUGAAUGGAGUUUAUCAUG [A22G G86U] | -0.647
GGAUCUUCUCGAUCUAACAAAGAAGACAAAUGUGCCACACAGCUUGAGAGCAUCUUCGGAUGCAGAGGCGGCAGCCUUCGGUGACGCGAUAGCGCCAACGUUCUCAACUAUGACACGCAAAACGCGUGCUCCGUUGAAUGGAGUUUAUCAUG [A22G C32G A40C G84A] | -4.13
GGAUCUUCUCGAUCUAACAAAGAAGACAAAUCUGCCACAAAGCUUGCGAGCAUCAUCGGAAGCAGAGGCGGCAGCCUUCGGUGGCGCGAUACCGCCAACGUUCUCAACUAUGACACGCAAAACGCGUGCUCCGUUGAAUGGUGUUUAUCAUG [A22G A47C U55A U61A G92C A142U] | ≤ -4.2
GGAUCUUCUCGAUCUAACAAAGAAGACAUAUCUGCCACAAAGCUUGAGAGCAUCUUCGGAUGCAGAGGCGGCAGCCUUCGGUGGCGCAAUAGCGCCAACGUUCUCAACUAUGACACUCAAAACGCGUGCUCCGUUGAAUAGAGUUUAUCAUG [A22G A29U G88A G117U G140A] | ≤ -4.2
GGAUCUUCUCGAUCUAACAAAGAAUACAAAUCUGCCAAAAAGCUUGAGAGCGUCUUCGGAUGCAGAGGCGGCAGCCUUCGGUGGCGCGAUAGCGCUAACGUUCUCAACUAUGACACGCAAAACGCGUGCUCCGUUGAAUGGAGUUUAUCAUG [A22G G25U C38A A52G C96U] | -2.43
GGAUCUUCUCGAUCUAACAAACAAGACAAAUCUGCCACAAAGCUUGAGAGCAUCUUCGGAUGCAGAGGCGGCAGCCUUCGGUGGCACGAUAGCGCCAACGUUCUCAACUAUGACACGCAAAACGCGUGCUCCGUUGAAUGGAGUUUAUCAUG [A22C G86A] | -1.57
GGAUCUUCUCGAUCUAACAAAGAAGACAAAUCUGCCACAAAGCUUGACAGCAUCUUCGAAUGCAGAGGCGGCAGCCUUCGGUAGCGCGAUAGCGCCAACGUUCUCAACUAUGACACGCAAAACGCGUGCUCCGUUGAAUGGAGUUUAUCAUG [A22G G48C G59A G83A] | -4.06
GGAUCUUCUCGAUCUAACAAAGAAGACAAAUCUGCCACAAAGCUUGAGAGCAUCUUCGGAUGCAGAGGCGGCAGCCUUCGGUGGCGCGCUAGCGCCAACGUUCUCAACUAUGACACGCAAAACGCGUGCUCCGUUGAAUGGAGUUUAUCAUG [A22G A89C] | -0.303
GGAUCUUCUCGAUCUAACAAACAAGACAAAUCUGCCACAAAGCUUGAGAGCAUCUUCGGAUGCAGAGGCGGCAGCCUUCGGUGGCACGAUAGCGCCAACGAUCUCAACUAUGACACGCAAAACGCGUGCUCCGUUGAAUGAGGUUUAUCAUG [A22C G86A U101A G141A A142G] | ≤ -4.2
GGAUCUUCUCGAUCUAACAAAGAAGACAAAUCUGCCACAAAGCUUGAGAGCAUCUUCGGAUGCAGAGGCGGCAGCCUUCGGUGUCGCUUUAGCGCCAACGUUCUCAACUAUGACACGCAAAACGCGUGCUCCGUUGAAUGGAGUUUAUCAUG [A22G G84U G88U A89U] | ≤ -4.2
GGAUCUUCUCGAUCUAACAAAGAAGACAAAUCUGGCACAAAGCCUGAGAGCAUCUUCGGAUGCAGAGGCGGCAGCCGUCGGUGGCGAGAUAGGGCCAACGUUCUCAACUAGGACACGCAAAACGCGUGCUCCGUUGAAUGGAGUUUAUCAUG [A22G C35G U44C U77G C87A C93G U111G] | ≤ -4.2
GGAUCUUCUCGAUCUAACAAAGAAGACAAAUCUGCCACAAAGCUUGAGAGCAUCUUCGGAUGCAGAGGCGGCAGCCUUCGGUCGCGCGAUAGCGCCAACGUUCUCAACUAUGACACGCAAAACGCGUGCUCCGUUGAAUGGAGUUUAUCAUG [A22G G83C] | -0.878
GGAUCUUCUCGAUCUAACAAAGAAGACAAAUCUGCCACAAAGCUUGAGAGCAUCUUCGGAUGCAGAGGCGGCAGCCUUCGGUGGCGCGAUACCGCCAACGUUCUCAACUAUGACACGCAAAACGCGUGCUCCGUUGAAUGGAGUUUAUCAUG [A22G G92C] | 0.21
GGAUCUUCUCGAUCUAACAAAGAAGACAAAUCUGCCAGAAAGCUUGAGAGCAUCUUCGGAUGCAGAGGCGGCAGCCUUCGGUGGCGCGAUAGCGCUAACGUUCUCAACUUAGACACGCAAAACGCGUGCUCCGUUGAAUGGAGUUUAUCAUG [A22G C38G C96U A110U U111A] | ≤ -4.2
GGAUCUUCUCGAUCUAACAAAGAAGACAAAUCUGCCACAAAGCUUGAAAGCAUCUUCGGAUCCAGAGGCGGCAGCCUUCGGUGGCGCGAUAGCACCAACGUUCUCAACUAUGACAUGCAAAACGCGUGCUCCGUUGAAUGGAGUUUAUCAUG [A22G G48A G62C G94A C116U] | ≤ -4.2
